Columns and labels:
[1] = molecular target: STAG2^R370Q–RAD21 complex (human | , UniProt Q8N3U4 1-1231; O60216 1-631, R370Q); assay: ITC
[2] = molecular target: T1, STAG2–RAD21 complex (wild type) (human | , UniProt Q8N3U4 1-1231; O60216 1-631); assay: ITC
T1 chain 1: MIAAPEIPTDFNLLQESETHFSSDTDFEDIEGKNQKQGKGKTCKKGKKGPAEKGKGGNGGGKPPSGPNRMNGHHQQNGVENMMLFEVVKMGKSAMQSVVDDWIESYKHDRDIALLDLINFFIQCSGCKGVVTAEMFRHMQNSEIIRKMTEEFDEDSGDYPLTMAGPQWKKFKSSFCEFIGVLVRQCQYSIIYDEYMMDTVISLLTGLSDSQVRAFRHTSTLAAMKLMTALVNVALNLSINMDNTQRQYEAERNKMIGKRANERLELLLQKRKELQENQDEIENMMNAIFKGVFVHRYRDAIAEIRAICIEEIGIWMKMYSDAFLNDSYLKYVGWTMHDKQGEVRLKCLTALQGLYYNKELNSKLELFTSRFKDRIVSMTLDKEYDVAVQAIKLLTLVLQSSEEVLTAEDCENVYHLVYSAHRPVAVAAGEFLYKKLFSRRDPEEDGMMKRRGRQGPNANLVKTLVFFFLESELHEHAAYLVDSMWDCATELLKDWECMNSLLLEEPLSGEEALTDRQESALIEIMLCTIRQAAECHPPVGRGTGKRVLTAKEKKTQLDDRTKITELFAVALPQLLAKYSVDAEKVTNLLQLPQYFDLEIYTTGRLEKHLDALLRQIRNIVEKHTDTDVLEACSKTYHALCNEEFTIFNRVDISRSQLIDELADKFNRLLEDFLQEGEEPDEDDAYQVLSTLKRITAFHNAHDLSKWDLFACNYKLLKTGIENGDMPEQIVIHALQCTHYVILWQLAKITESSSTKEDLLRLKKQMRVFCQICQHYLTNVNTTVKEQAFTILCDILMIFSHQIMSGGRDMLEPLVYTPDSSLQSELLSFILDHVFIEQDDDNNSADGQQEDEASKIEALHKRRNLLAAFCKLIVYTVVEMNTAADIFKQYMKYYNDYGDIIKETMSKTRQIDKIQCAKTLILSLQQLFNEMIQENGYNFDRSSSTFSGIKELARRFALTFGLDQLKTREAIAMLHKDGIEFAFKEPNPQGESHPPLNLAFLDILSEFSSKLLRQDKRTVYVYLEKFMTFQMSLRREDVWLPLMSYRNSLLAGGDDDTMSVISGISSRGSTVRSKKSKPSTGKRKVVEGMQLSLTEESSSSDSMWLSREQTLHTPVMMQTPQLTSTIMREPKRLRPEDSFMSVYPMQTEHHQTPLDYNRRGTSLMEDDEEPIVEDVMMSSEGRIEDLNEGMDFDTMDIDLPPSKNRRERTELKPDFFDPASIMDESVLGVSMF
T1 chain 2: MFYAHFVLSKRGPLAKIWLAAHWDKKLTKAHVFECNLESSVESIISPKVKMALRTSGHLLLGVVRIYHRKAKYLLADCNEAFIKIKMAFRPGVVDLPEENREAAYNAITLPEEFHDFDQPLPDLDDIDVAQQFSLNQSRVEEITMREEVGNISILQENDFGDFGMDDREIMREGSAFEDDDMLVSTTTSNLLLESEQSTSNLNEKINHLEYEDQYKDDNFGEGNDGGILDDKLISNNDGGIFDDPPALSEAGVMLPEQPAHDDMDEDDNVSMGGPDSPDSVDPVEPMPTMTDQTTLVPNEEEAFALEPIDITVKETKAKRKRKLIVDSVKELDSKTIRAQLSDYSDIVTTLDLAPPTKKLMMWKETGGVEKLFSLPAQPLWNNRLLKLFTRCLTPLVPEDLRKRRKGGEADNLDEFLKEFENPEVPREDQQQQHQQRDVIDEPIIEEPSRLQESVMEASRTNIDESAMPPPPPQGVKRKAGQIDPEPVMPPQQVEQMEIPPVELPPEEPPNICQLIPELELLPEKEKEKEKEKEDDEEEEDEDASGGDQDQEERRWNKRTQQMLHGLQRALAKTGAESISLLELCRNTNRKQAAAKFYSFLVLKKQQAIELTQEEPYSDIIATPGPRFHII

STAG2^R370Q–RAD21 complex, sequence (Q8N3U4 whole entry R370Q, chain 1 of 2, one chain of several): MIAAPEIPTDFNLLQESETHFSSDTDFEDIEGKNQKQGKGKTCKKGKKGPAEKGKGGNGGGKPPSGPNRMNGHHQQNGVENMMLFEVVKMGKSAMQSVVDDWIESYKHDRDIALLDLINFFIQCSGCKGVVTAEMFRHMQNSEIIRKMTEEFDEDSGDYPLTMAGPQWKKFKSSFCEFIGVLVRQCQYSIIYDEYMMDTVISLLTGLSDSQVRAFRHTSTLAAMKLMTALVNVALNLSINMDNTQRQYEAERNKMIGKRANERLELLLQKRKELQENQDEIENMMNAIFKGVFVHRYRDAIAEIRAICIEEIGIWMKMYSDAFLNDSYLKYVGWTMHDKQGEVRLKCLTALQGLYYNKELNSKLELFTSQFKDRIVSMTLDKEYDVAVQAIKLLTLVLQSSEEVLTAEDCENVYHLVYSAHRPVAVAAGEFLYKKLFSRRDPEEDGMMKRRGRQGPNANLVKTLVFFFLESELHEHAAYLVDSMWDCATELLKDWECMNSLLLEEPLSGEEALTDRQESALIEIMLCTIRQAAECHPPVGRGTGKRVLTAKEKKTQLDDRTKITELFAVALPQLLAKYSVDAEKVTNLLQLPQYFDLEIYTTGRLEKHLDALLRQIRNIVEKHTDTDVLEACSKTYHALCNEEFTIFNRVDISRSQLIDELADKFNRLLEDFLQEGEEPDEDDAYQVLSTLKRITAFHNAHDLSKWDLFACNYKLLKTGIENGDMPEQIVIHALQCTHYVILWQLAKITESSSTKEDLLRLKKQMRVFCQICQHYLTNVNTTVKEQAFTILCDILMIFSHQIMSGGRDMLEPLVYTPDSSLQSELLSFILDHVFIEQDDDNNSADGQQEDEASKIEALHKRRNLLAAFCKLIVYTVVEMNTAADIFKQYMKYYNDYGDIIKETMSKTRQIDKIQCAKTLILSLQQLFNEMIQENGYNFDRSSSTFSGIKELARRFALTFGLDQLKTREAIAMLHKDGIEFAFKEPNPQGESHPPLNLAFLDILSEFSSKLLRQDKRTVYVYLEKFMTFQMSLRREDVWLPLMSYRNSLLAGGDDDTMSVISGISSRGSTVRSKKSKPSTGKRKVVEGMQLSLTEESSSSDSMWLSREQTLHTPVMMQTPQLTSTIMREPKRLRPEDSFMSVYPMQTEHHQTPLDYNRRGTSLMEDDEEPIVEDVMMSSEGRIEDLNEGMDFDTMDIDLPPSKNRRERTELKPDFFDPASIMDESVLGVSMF

B1: CTCF peptide (peptide)
chain: DVSVYDFEEE
**Q.** Which results are given for B1?
**A.** Kd [1]: 21.7 µM; Kd [2]: 1.92 µM

Reference: paper PMC11319201 (2024)
